Results published in US20250277031A1 (BEIJING HANMI PHARMACEUTICAL, published 2025).
Where a chain is given by its changes, count along the chain named. Blank lines part the entries; values can stand above or below the binder they belong to.

Experiments:
recombinant human CD47 [1] = molecular target: T1, recombinant human CD47 (human, UniProt Q08722 19-139); assay: ELISA, coated recombinant human CD47
T1 construct: also called antigen CD47
Method: (§1) ELISA was used to screen the anti-human CD47 antibodies in the hybridoma culture supernatants. A 96-well high-adsorption ELISA plate (Costar, catalog number 42592) was coated with 1 μg/mL of the recombinant human CD47 (Sino Biological Inc.) at 100 μL per well using carbonate buffer solution, pH=9.6 at 4° C. overnight. The plate was washed 5 times with PBST, and then blocked using PBST with 1% BSA, 300 μL/well, and incubated at 25° C. for 1 hour, and then washed 5 times with PBST. The culture supernatant samples and positive serum control were added, 100 μL/well, incubated at 25° C. for 1 hour, and then washed 5 times with PBST. The horseradish peroxidase-labeled anti-mouse IgG antibody (Abcam, catalog number Ab7068) diluted 1:10000 in PBST with 1% BSA was then added, 100 μL per well, and incubated at 25° C. for 1 hour. The plate was washed 5 times with PBST. The colorimetric substrate TMB was added, 100 μL/well, and developed at room temperature for 10 minutes. 1M H₂SO₄ was added, 100 μL/well, to stop the development. The absorbance at 450 nm was read on a microplate reader. Positive clones capable of secreting the anti-human CD47 selection antibodies were selected according to the magnitude of OD₄₅₀ₙₘ.

[2] = molecular target: T2, recombinant human CD47-Fc protein (ACROBiosystems, catalog number CD7-H52A5) (human, UniProt Q08722 19-139); assay: competition ELISA, coated CD47-Fc, competitor biotin-labelled SIRPα 2 nM
T2 construct: bought; not shown: Fc part of a bought fusion protein, not described
T2 sequence (Q08722 19-139 limits assumed): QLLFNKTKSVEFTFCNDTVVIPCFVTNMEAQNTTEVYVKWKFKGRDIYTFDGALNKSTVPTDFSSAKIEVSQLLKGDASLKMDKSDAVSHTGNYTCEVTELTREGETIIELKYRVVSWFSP
Method: ELISA was used to determine whether the anti-human CD47 selection antibodies secreted by the positive clones can block the binding of CD47/SIRPα. A 96-well high-adsorption ELISA plate was coated with 1 μg/mL of the recombinant human CD47-Fc (ACROBiosystems) at 100 μL per well using carbonate buffer solution, pH=9.6 at 4° C. overnight. The plate was washed 5 times with PBST, and then blocked using PBST with 1% BSA, 300 μL/well, and incubated at 25° C. for 1 hour, and then washed 5 times with PBST. The anti-human CD47 selection antibody samples were added, 50 μL/well, the biotin-labelled SIRPα (ACROBiosystems) was added at a concentration of 4 nM (a final concentration of 2 nM), 50 μL/well, incubated at 25° C. for 90 minutes, and then washed 5 times with PBST. The Streptavidin-HRP (BD Pharmingen, catalog number 554066) diluted 1:1000 in PBST with 1% BSA was then added, 100 μL per well, and incubated at 25° C. for 1 hour. The plate was washed 5 times with PBST. The colorimetric substrate TMB was added, 100 μL/well, and developed at room temperature for 10 minutes. 1M H₂SO₄ was added, 100 μL/well, to stop the development. The absorbance at 450 nm was read on a microplate reader. The anti-human CD47 selection antibodies capable of inhibiting the binding of the human CD47-Fc/biotin-labelled SIRPα have a neutralizing activity. […]

recombinant human CD47 [3] = molecular target: T1, recombinant human CD47; assay: ELISA, plate coated with recombinant human CD47, OD450
recombinant human CD47 [4] = molecular target: T1, recombinant human CD47; assay: SPR, Biacore X100, antibody captured on Protein A chip, CD47 as analyte
Description: Biacore X100 instrument (purchased from GE) was used to detect the kinetic constant of the chimeric anti-human CD47 monoclonal antibodies binding to its antigen human CD47. This instrument utilizes optical surface plasmon resonance technology to detect the association and dissociation between the molecules coated on the biochip and the molecules to be tested. The main reagent used is Protein A chip (GE Healthcare, 29-1275-57). The experimental procedure is briefly described as follows: the chimeric anti-human CD47 antibodies were diluted in running buffer (1×HBS-EP+10 mM HEPES, 150 mM NaCl, 3 mM EDTA, 0.05% surfactant P20, pH7.4). During the capture-binding phase, the antibodies at a concentration of 2 μg/mL were injected for 60 seconds at a speed of 10 μL/min. During the binding phase, the antigen CD47 was diluted into multiple concentrations with running buffer, injected for 120 seconds at a speed of 30 μL/min respectively. During the dissociation phase, running buffer was injected for 600 seconds at a speed of 10 μL/min. The regeneration condition is 10 mM glycinate solution, pH1.5. Association kinetic constants and dissociation kinetic constants were analyzed and calculated by Biacore X100 evaluation software. The association kinetic constants, dissociation kinetic constants and dissociation equilibrium constants of the chimeric anti-human CD47 antibodies were shown in Table 7.
As mentioned above, Biacore X100 instrument was used to detect the binding kinetic constant of the humanized anti-human CD47 monoclonal antibodies to its antigen human CD47. The association kinetic constants, dissociation kinetic constants and dissociation equilibrium constants of the humanized anti-human CD47 antibodies were shown in Table 10.

[5] = molecular target: T2, recombinant human CD47-Fc protein …; assay: blocking ELISA: plate coated with human CD47-Fc, biotin-labelled SIRPα as the blocked ligand, falling OD450 curve; the sheet labels the half-maximal value EC50
[6] = molecular target: T2, recombinant human CD47-Fc protein …; assay: blocking ELISA: plate coated with human CD47-Fc, 2 nM biotin-labelled SIRPα as the blocked ligand, falling OD450 curve; the sheet labels the half-maximal value EC50
Method: A 96-well high-adsorption ELISA plate was coated with 1 μg/mL of the recombinant human CD47-Fc (ACROBiosystems) at 100 μL per well using carbonate buffer solution, pH=9.6 at 4° C. overnight. The plate was washed 5 times with PBST, and then blocked using PBST with 1% BSA, 300 μL/well, and incubated at 25° C. for 1 hour, and then washed 5 times with PBST. The anti-human CD47 antibody samples were added, 50 μL/well, the biotin-labelled SIRPα (ACROBiosystems) was added at a concentration of 4 nM (a final concentration of 2 nM), 50 μL/well, incubated at 25° C. for 90 minutes, and then washed 5 times with PBST. The Streptavidin-HRP (BD Pharmingen, catalog number 554066) diluted 1:1000 in PBST with 1% BSA was then added, 100 μL per well, and incubated at 25° C. for 1 hour. The plate was washed 5 times with PBST. The colorimetric substrate TMB was added, 100 μL/well, and developed at room temperature for 10 minutes. 1M H₂SO₄ was added, 100 μL/well, to stop the development. The absorbance at 450 nm was read on a microplate reader.

[7] = molecular target: recombinant human SIRPγ (ACROBiosystems) (human, UniProt Q9P1W8 29-360, limits assumed); assay: ELISA, coated recombinant protein
Chain of recombinant human SIRPγ (ACROBiosystems) (Q9P1W8 29-360 limits assumed): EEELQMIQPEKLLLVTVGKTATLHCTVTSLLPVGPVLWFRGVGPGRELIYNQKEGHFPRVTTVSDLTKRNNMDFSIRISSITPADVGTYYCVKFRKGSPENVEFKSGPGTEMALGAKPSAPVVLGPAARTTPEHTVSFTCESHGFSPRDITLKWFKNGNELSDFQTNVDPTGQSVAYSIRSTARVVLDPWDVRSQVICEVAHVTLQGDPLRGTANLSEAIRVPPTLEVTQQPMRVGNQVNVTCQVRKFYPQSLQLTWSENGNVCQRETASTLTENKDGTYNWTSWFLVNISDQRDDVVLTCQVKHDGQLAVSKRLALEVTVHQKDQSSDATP
Method: (§2) Binding specificity of the chimeric anti-human CD47 mAbs was determined by ELISA. A 96-well high-adsorption ELISA plate was coated with 1 μg/mL of the recombinant human PD1, CD28, CTLA4, ICOS, BTLA, CD47, PD-L2, CD80, CD86, B7-H2, CD47, SIRPα and SIRPγ (all from ACROBiosystems), at 100 μL per well using carbonate buffer solution, pH=9.6 at 4° C. overnight. The plate was washed 5 times with PBST, and then blocked using PBST with 1% BSA, 300 μL/well, and incubated at 25° C. for 1 hour, and then washed 5 times with PBST. The chimeric anti-human CD47 mAb samples serially diluted in PBST with 1% BSA and the control CC-90002 and the isotype control were added, 100 μL/well, incubated at 25° C. for 1 hour, and then washed 5 times with PBST. The horseradish peroxidase-labeled anti-human IgG antibody (Chemicon, catalog number AP309P) diluted 1:10000 in PBST with 1% BSA was then added, 100 μL per well, and incubated at 25° C. for 1 hour. The plate was washed 5 times with PBST. The colorimetric substrate TMB was added, 100 μL/well, and developed at room temperature for 10 minutes. 1M H₂SO₄ was added, 100 μL/well, to stop the development. The absorbance at 450 nm was read on a microplate reader.

[8] = molecular target: T3, recombinant human B7-H2 (ACROBiosystems) (human, UniProt O75144 19-258, limits assumed); assay: ELISA, coated recombinant protein
T3 construct: counted here as a B7 family member
T3 sequence (looked up): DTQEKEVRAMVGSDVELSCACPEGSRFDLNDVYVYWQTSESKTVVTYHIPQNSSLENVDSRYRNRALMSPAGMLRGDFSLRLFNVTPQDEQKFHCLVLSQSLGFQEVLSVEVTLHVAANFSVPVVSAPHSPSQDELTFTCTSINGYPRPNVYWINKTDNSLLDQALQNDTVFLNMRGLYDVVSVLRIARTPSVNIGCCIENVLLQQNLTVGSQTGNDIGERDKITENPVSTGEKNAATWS
Method: as §2

recombinant human CD47 [9] = molecular target: T1, recombinant human CD47; assay: ELISA, plate coated with 1 µg/mL recombinant human CD47, OD450
Method: as §1, with “A” for “ELISA was used to screen the anti-human CD47 antibodies in the hybridoma culture supernatants. A”, “plate” for “plate (Costar, catalog number 42592)”, “anti-human CD47 antibody” for “culture supernatant”, “the” for “positive serum”, “control CC-90002 (a patent sequence from WO2016109415)” for “control”, “reader.” for “reader. Positive clones capable of secreting the anti-human CD47 selection antibodies were selected according to the magnitude of OD₄₅₀ₙₘ.”

T1 sequence (Q08722 19-139 limits assumed): as the sequence (Q08722 19-139 limits assumed) above

B1: anti-human CD47 murine monoclonal antibody secreted by clone CD47-18-5 (antibody, V domains shown)
VH: EVQLQQSGAELVKPGASVKLSCTASGFNIEDIYMHWVKQRPEQGLEWIGRIDPANDNTKYGPKLQGRATITADTSSNTAYLQLSGLTSEDTGVYYCVRRIPTDIMDYWGPGTSVTVSS
VL: DIVMTQSQKFMSTSVGDRVSITCKASQNVRTSIAWYQQKSGQSPKTLIYLASNRHTGVPDRFTGSGSGTDFTLTISNVQSEDLADYFCLQHWNYPFTFGSGTKLEIK
notes: murine hybridoma antibody
EC50 (recombinant human CD47 [1]): 0.252 nM | IC50 [2]: 1.48 nM

B2: anti-human CD47 murine monoclonal antibody secreted by clone CD47-18-10 (antibody, V domains shown)
VH: B1 VH with L64F, I70M, P101T, I104V, P110Q
VL: B1 VL with S40P
notes: murine hybridoma antibody
EC50 (recombinant human CD47 [1]): 0.273 nM | IC50 [2]: 2.1 nM

B3: humanized anti-human CD47 monoclonal antibody BH3008b (antibody, human IgG4 S228P, kappa, V domains shown)
VH: QVQLVQSGAEVKKPGSSVKVSCKASGFNIEDIYMHWVRQAPGQGLEWMGRIDPANDNTKYGPKLQGRVTITADTSTNTAYMELSSLRSEDTAVYYCVRRIPTDIMDYWGQGTTVTVSS
VL: DIQMTQSPSSLSASVGDRVTITCKASQNVRTSIAWYQQKPGKAPKTLIYLASNRHTGVPSRFSGSGSGTEFTLTISNLQPEDFATYYCLQHWNYPFTFGQGTKLEIKR
notes: variable regions of Z11; the summary calls the humanized antibody an IgG4; also called Z11
EC50 (recombinant human CD47 [3]): 0.035 nM | Kd (recombinant human CD47 [4]): 1.17 nM | koff (recombinant human CD47 [4]): 0.00117 s⁻¹ | kon (recombinant human CD47 [4]): 998000 M⁻¹ s⁻¹ | IC50 [5]: 0.781 nM

The next lines start with the values.

EC50 (recombinant human CD47 [3]): 0.029 nM | Kd (recombinant human CD47 [4]): 0.833 nM | koff (recombinant human CD47 [4]): 0.000852 s⁻¹ | kon (recombinant human CD47 [4]): 1.02e+06 M⁻¹ s⁻¹ | IC50 [5]: 0.741 nM
B4: humanized anti-human CD47 monoclonal antibody BH3011b (antibody, human IgG4 S228P, kappa, V domains shown)
VH: B3 VH
VL: B3 VL with Y87F
notes: variable regions of Z12; the summary calls the humanized antibody an IgG4; also called Z12; BH301Tb

IC50 [6]: 1.69 nM | binding result [7]: no binding | binding result [8]: no binding | EC50 (recombinant human CD47 [9]): 0.031 nM
B5: chimeric anti-human CD47 monoclonal antibody mAb-18-10 N297A (antibody, human IgG1, kappa, N297A)
heavy: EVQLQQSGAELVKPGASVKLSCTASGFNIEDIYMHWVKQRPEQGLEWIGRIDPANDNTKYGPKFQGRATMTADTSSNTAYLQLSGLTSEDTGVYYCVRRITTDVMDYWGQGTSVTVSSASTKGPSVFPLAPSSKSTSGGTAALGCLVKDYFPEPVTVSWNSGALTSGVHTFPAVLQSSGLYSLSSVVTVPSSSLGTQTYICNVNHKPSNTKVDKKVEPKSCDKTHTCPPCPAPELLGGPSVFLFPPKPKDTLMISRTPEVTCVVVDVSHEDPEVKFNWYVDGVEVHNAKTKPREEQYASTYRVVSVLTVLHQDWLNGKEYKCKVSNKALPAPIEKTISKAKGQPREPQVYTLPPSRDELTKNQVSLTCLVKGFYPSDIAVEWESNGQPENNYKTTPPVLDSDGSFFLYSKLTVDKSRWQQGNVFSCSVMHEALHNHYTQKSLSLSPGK
light: DIVMTQSQKFMSTSVGDRVSITCKASQNVRTSIAWYQQKPGQSPKTLIYLASNRHTGVPDRFTGSGSGTDFTLTISNVQSEDLADYFCLQHWNYPFTFGSGTKLEIKRTVAAPSVFIFPPSDEQLKSGTASVVCLLNNFYPREAKVQWKVDNALQSGNSQESVTEQDSKDSTYSLSSTLTLSKADYEKHKVYACEVTHQGLSSPVTKSFNRGEC
notes: no further substitution applied
